The supplement of paper PMC10567573

B1: ZBTB22 (parent)
chain: AVLAASSPYFHDQVLLKGMTSISL

Variants of: B1
Assay: protein stability index of a GFP-peptide fusion (GPS, HEK-293T) (PSI 1-6); higher = more stable
Details: c terminus: a fixed tail appended
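Also: lentivirally expressed fusions sorted by FACS into six bins by GFP to DsRed ratio, PSI derived from sequencing read proportions per bin multiplied by bin number.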

With ANLAASSPYFHDQVLLKGMTSISL [V2N] as the variant, how does the protein stability index read?
Its protein stability index is 1.63.

Which protein stability index does the source give for AQLAASSPYFHDQVLLKGMTSISL [V2Q] here?
The protein stability index was 1.62.

With ARLAASSPYFHDQVLLKGMTSISL [V2R] as the variant, how does the protein stability index read?
Its protein stability index is 2.15.

Which protein stability index does the source give for ASLAASSPYFHDQVLLKGMTSISL [V2S] here?
The protein stability index was 2.33.

With ATLAASSPYFHDQVLLKGMTSISL [V2T] as the variant, how does the protein stability index read?
The protein stability index was 1.45.

With AWLAASSPYFHDQVLLKGMTSISL [V2W] as the variant, how does the protein stability index read?
Its protein stability index is 1.79.

Which protein stability index does the source give for AVAAASSPYFHDQVLLKGMTSISL [L3A] here?
Its protein stability index is 2.48.

With AVCAASSPYFHDQVLLKGMTSISL [L3C] as the variant, how does the protein stability index read?
The protein stability index was 2.92.

For AVEAASSPYFHDQVLLKGMTSISL [L3E], which protein stability index is on record?
Its protein stability index is 2.04.

For AVHAASSPYFHDQVLLKGMTSISL [L3H], which protein stability index is on record?
Its protein stability index is 2.22.

For AVIAASSPYFHDQVLLKGMTSISL [L3I], which protein stability index is on record?
Its protein stability index is 3.32.

For AVKAASSPYFHDQVLLKGMTSISL [L3K], which protein stability index is on record?
The protein stability index was 1.64.

Which protein stability index does the source give for AVMAASSPYFHDQVLLKGMTSISL [L3M] here?
The protein stability index was 3.26.

Which protein stability index does the source give for AVNAASSPYFHDQVLLKGMTSISL [L3N] here?
Its protein stability index is 2.38.

Which protein stability index does the source give for AVPAASSPYFHDQVLLKGMTSISL [L3P] here?
The protein stability index was 3.11.

Which protein stability index does the source give for AVQAASSPYFHDQVLLKGMTSISL [L3Q] here?
The protein stability index was 1.93.

With AVRAASSPYFHDQVLLKGMTSISL [L3R] as the variant, how does the protein stability index read?
Its protein stability index is 1.45.

With AVSAASSPYFHDQVLLKGMTSISL [L3S] as the variant, how does the protein stability index read?
Its protein stability index is 1.45.

Which protein stability index does the source give for AVTAASSPYFHDQVLLKGMTSISL [L3T] here?
Its protein stability index is 2.38.

For AVLDASSPYFHDQVLLKGMTSISL [A4D], which protein stability index is on record?
Its protein stability index is 1.15.

With AVLEASSPYFHDQVLLKGMTSISL [A4E] as the variant, how does the protein stability index read?
Its protein stability index is 2.48.

With AVLFASSPYFHDQVLLKGMTSISL [A4F] as the variant, how does the protein stability index read?
The protein stability index was 2.24.

For AVLGASSPYFHDQVLLKGMTSISL [A4G], which protein stability index is on record?
Its protein stability index is 1.92.

For AVLHASSPYFHDQVLLKGMTSISL [A4H], which protein stability index is on record?
Its protein stability index is 4.29.

With AVLIASSPYFHDQVLLKGMTSISL [A4I] as the variant, how does the protein stability index read?
The protein stability index was 2.48.

Which protein stability index does the source give for AVLKASSPYFHDQVLLKGMTSISL [A4K] here?
The protein stability index was 2.92.

For AVLLASSPYFHDQVLLKGMTSISL [A4L], which protein stability index is on record?
Its protein stability index is 2.9.

For AVLMASSPYFHDQVLLKGMTSISL [A4M], which protein stability index is on record?
Its protein stability index is 2.04.

With AVLPASSPYFHDQVLLKGMTSISL [A4P] as the variant, how does the protein stability index read?
The protein stability index was 1.05.

Which protein stability index does the source give for AVLSASSPYFHDQVLLKGMTSISL [A4S] here?
The protein stability index was 1.88.

For AVLYASSPYFHDQVLLKGMTSISL [A4Y], which protein stability index is on record?
Its protein stability index is 2.

For AVLAESSPYFHDQVLLKGMTSISL [A5E], which protein stability index is on record?
Its protein stability index is 1.55.

Which protein stability index does the source give for AVLAFSSPYFHDQVLLKGMTSISL [A5F] here?
Its protein stability index is 2.98.

Which protein stability index does the source give for AVLAHSSPYFHDQVLLKGMTSISL [A5H] here?
Its protein stability index is 2.04.

For AVLAKSSPYFHDQVLLKGMTSISL [A5K], which protein stability index is on record?
The protein stability index was 3.55.

For AVLALSSPYFHDQVLLKGMTSISL [A5L], which protein stability index is on record?
The protein stability index was 2.21.

With AVLANSSPYFHDQVLLKGMTSISL [A5N] as the variant, how does the protein stability index read?
Its protein stability index is 2.66.

Which protein stability index does the source give for AVLAQSSPYFHDQVLLKGMTSISL [A5Q] here?
Its protein stability index is 3.23.

For AVLASSSPYFHDQVLLKGMTSISL [A5S], which protein stability index is on record?
Its protein stability index is 2.6.

With AVLATSSPYFHDQVLLKGMTSISL [A5T] as the variant, how does the protein stability index read?
The protein stability index was 3.75.

With AVLAWSSPYFHDQVLLKGMTSISL [A5W] as the variant, how does the protein stability index read?
The protein stability index was 1.88.

For AVLAYSSPYFHDQVLLKGMTSISL [A5Y], which protein stability index is on record?
The protein stability index was 2.44.

For AVLAADSPYFHDQVLLKGMTSISL [S6D], which protein stability index is on record?
Its protein stability index is 2.61.

With AVLAAESPYFHDQVLLKGMTSISL [S6E] as the variant, how does the protein stability index read?
Its protein stability index is 1.41.

With AVLAAGSPYFHDQVLLKGMTSISL [S6G] as the variant, how does the protein stability index read?
Its protein stability index is 2.75.

Which protein stability index does the source give for AVLAAISPYFHDQVLLKGMTSISL [S6I] here?
Its protein stability index is 1.97.

With AVLAAKSPYFHDQVLLKGMTSISL [S6K] as the variant, how does the protein stability index read?
The protein stability index was 2.05.

Which protein stability index does the source give for AVLAANSPYFHDQVLLKGMTSISL [S6N] here?
Its protein stability index is 3.54.

For AVLAAPSPYFHDQVLLKGMTSISL [S6P], which protein stability index is on record?
The protein stability index was 2.23.

With AVLAAQSPYFHDQVLLKGMTSISL [S6Q] as the variant, how does the protein stability index read?
Its protein stability index is 3.02.

For AVLAARSPYFHDQVLLKGMTSISL [S6R], which protein stability index is on record?
The protein stability index was 1.67.

Which protein stability index does the source give for AVLAATSPYFHDQVLLKGMTSISL [S6T] here?
The protein stability index was 2.4.

With AVLAAWSPYFHDQVLLKGMTSISL [S6W] as the variant, how does the protein stability index read?
Its protein stability index is 3.82.

With AVLAASDPYFHDQVLLKGMTSISL [S7D] as the variant, how does the protein stability index read?
The protein stability index was 3.38.

For AVLAASEPYFHDQVLLKGMTSISL [S7E], which protein stability index is on record?
The protein stability index was 2.33.

Which protein stability index does the source give for AVLAASHPYFHDQVLLKGMTSISL [S7H] here?
The protein stability index was 2.8.

Which protein stability index does the source give for AVLAASIPYFHDQVLLKGMTSISL [S7I] here?
Its protein stability index is 4.5.

With AVLAASLPYFHDQVLLKGMTSISL [S7L] as the variant, how does the protein stability index read?
Its protein stability index is 2.91.

Which protein stability index does the source give for AVLAASTPYFHDQVLLKGMTSISL [S7T] here?
Its protein stability index is 3.75.

Which protein stability index does the source give for AVLAASVPYFHDQVLLKGMTSISL [S7V] here?
The protein stability index was 2.11.

For AVLAASWPYFHDQVLLKGMTSISL [S7W], which protein stability index is on record?
The protein stability index was 2.

For AVLAASYPYFHDQVLLKGMTSISL [S7Y], which protein stability index is on record?
Its protein stability index is 1.47.

Which protein stability index does the source give for AVLAASSAYFHDQVLLKGMTSISL [P8A] here?
Its protein stability index is 2.55.

For AVLAASSDYFHDQVLLKGMTSISL [P8D], which protein stability index is on record?
The protein stability index was 2.5.

Which protein stability index does the source give for AVLAASSFYFHDQVLLKGMTSISL [P8F] here?
Its protein stability index is 2.55.

For AVLAASSGYFHDQVLLKGMTSISL [P8G], which protein stability index is on record?
Its protein stability index is 3.22.

Which protein stability index does the source give for AVLAASSHYFHDQVLLKGMTSISL [P8H] here?
Its protein stability index is 2.88.

For AVLAASSIYFHDQVLLKGMTSISL [P8I], which protein stability index is on record?
The protein stability index was 2.73.

With AVLAASSLYFHDQVLLKGMTSISL [P8L] as the variant, how does the protein stability index read?
Its protein stability index is 3.83.

Which protein stability index does the source give for AVLAASSRYFHDQVLLKGMTSISL [P8R] here?
Its protein stability index is 4.82.

With AVLAASSPAFHDQVLLKGMTSISL [Y9A] as the variant, how does the protein stability index read?
The protein stability index was 1.37.

For AVLAASSPDFHDQVLLKGMTSISL [Y9D], which protein stability index is on record?
Its protein stability index is 2.17.

For AVLAASSPEFHDQVLLKGMTSISL [Y9E], which protein stability index is on record?
The protein stability index was 2.05.

With AVLAASSPFFHDQVLLKGMTSISL [Y9F] as the variant, how does the protein stability index read?
The protein stability index was 3.55.

With AVLAASSPHFHDQVLLKGMTSISL [Y9H] as the variant, how does the protein stability index read?
Its protein stability index is 1.33.

For AVLAASSPIFHDQVLLKGMTSISL [Y9I], which protein stability index is on record?
Its protein stability index is 4.18.

For AVLAASSPNFHDQVLLKGMTSISL [Y9N], which protein stability index is on record?
Its protein stability index is 2.96.

For AVLAASSPPFHDQVLLKGMTSISL [Y9P], which protein stability index is on record?
The protein stability index was 1.84.

For AVLAASSPVFHDQVLLKGMTSISL [Y9V], which protein stability index is on record?
Its protein stability index is 2.54.

With AVLAASSPYCHDQVLLKGMTSISL [F10C] as the variant, how does the protein stability index read?
Its protein stability index is 2.28.

Which protein stability index does the source give for AVLAASSPYDHDQVLLKGMTSISL [F10D] here?
Its protein stability index is 2.04.

With AVLAASSPYEHDQVLLKGMTSISL [F10E] as the variant, how does the protein stability index read?
The protein stability index was 1.76.

With AVLAASSPYGHDQVLLKGMTSISL [F10G] as the variant, how does the protein stability index read?
Its protein stability index is 2.6.

For AVLAASSPYHHDQVLLKGMTSISL [F10H], which protein stability index is on record?
The protein stability index was 2.49.

For AVLAASSPYKHDQVLLKGMTSISL [F10K], which protein stability index is on record?
Its protein stability index is 1.73.

Which protein stability index does the source give for AVLAASSPYMHDQVLLKGMTSISL [F10M] here?
Its protein stability index is 2.72.

Which protein stability index does the source give for AVLAASSPYNHDQVLLKGMTSISL [F10N] here?
Its protein stability index is 1.92.

Which protein stability index does the source give for AVLAASSPYPHDQVLLKGMTSISL [F10P] here?
The protein stability index was 1.

With AVLAASSPYQHDQVLLKGMTSISL [F10Q] as the variant, how does the protein stability index read?
The protein stability index was 1.65.

With AVLAASSPYRHDQVLLKGMTSISL [F10R] as the variant, how does the protein stability index read?
The protein stability index was 1.41.

For AVLAASSPYSHDQVLLKGMTSISL [F10S], which protein stability index is on record?
The protein stability index was 1.87.

For AVLAASSPYVHDQVLLKGMTSISL [F10V], which protein stability index is on record?
Its protein stability index is 2.44.

For AVLAASSPYWHDQVLLKGMTSISL [F10W], which protein stability index is on record?
Its protein stability index is 2.24.

For AVLAASSPYYHDQVLLKGMTSISL [F10Y], which protein stability index is on record?
The protein stability index was 2.19.
